{"source": "patent US7666644B2", "about": "“Glyphosate-N-acetyltransferase (GAT) genes” (Verdia, Inc., priority 2004, dated 2010)", "molecules": {"B1": {"name": "GAT4621: altered gat coding sequence encoding 25-8H7 M1MA; Ala codon inserted and more frequently utilized codons throughout (nucleic acid)", "DNA": "ATGGCTATTGAGGTTAAGCCTATCAACGCAGAGGATACCTATGACCTTAGGCATAGAGTGCTCAGACCAAACCAGCCTATCGAAGCCTGCATGTTTGAGTCTGACCTTACTAGGAGTGCATTTCACCTTGGTGGATTCTACGGAGGTAAACTGATTTCCGTGGCTTCATTCCACCAAGCTGAGCACTCTGAACTTCAAGGTAAGAAGCAGTACCAGCTTAGAGGTGTGGCTACCTTGGAAGGTTATAGAGAGCAGAAGGCTGGTTCCAGTCTCGTGAAACACGCTGAAGAGATTCTCAGAAAGAGAGGTGCTGACATGATCTGGTGTAATGCCAGGACATCTGCTTCAGGATACTACAGGAAGTTGGGATTCAGTGAGCAAGGAGAGGTGTTCGATACTCCTCCAGTTGGACCTCACATCCTGATGTATAAGAGGATCACATAA", "modifications": "Synthetic nucleic acid sequence GAT4621; CDS (1)...(444): encodes 25-8H7 M1MA (SEQ ID NO:950)", "notes": "Ala codon inserted and more frequently utilized codons throughout"}, "B2": {"name": "GAT4620: altered gat coding sequence encoding 25-8H7 M1MA; Ala codon inserted, first 7 codons more frequently utilized, Ser 62 and Arg 111 changed (nucleic acid)", "DNA": "ATGGCTATTGAGGTTAAACCTATTAACGCAGAGGATACCTATGACCTAAGGCATAGAGTCCTCAGACCAAACCAGCCGATAGAAGCGTGTATGTTTGAAAGCGATTTAACGCGTAGTGCATTTCACTTAGGCGGCTTCTACGGGGGCAAACTGATTTCCGTCGCTTCATTCCACCAGGCCGAGCACTCTGAACTTCAAGGCAAGAAACAGTACCAGCTTCGAGGTGTGGCTACCTTGGAAGGTTATCGTGAGCAGAAGGCGGGTTCCAGTCTAGTTAAACACGCTGAAGAAATTCTACGTAAGAGGGGGGCGGACATGATTTGGTGTAATGCGAGGACATCTGCCTCAGGCTACTACAGAAAGTTAGGCTTCAGCGAGCAGGGAGAGGTATTCGACACGCCGCCAGTAGGACCTCACATCCTGATGTATAAAAGGATCACATAA", "modifications": "Synthetic nucleic acid sequence GAT4620; CDS (1)...(444): encodes 25-8H7 M1MA (SEQ ID NO:950)", "notes": "Ala codon inserted, first 7 codons more frequently utilized, Ser 62 and Arg 111 changed"}, "B3": {"name": "25-8H7: further evolved GAT enzyme, SEQ ID NO:907; gene GAT25-8H7/4618 SEQ ID NO:906 (protein)", "chain": "MIEVKPINAEDTYDLRHRVLRPNQPIEACMFESDLTRSAFHLGGFYGGKLISVASFHQAEHSELQGKKQYQLRGVATLEGYREQKAGSSLVKHAEEILRKRGADMIWCNARTSASGYYRKLGFSEQGEVFDTPPVGPHILMYKRIT", "modifications": "25-8H7"}, "B4": {"name": "17-15H3: evolved GAT; polypeptide SEQ ID NO:601, transgene SEQ ID NO:549 (protein)", "chain": "MIEVKPINAEDTYELRHRILRPNQPIEACMFESDLLRGAFHLGGYYGGKLISIASFHQAEHSELQGQKQYQLRGMATLEGYREQKAGSSLIKHAEEILRKRGADLLWCNARTSASGYYKKLGFSEQGEVFDTPPVGPHILMYKRIT", "modifications": "D_S00260796_17-15H3"}, "B5": {"name": "22-15B4 M1MAA: 22-15B4 with two alanines inserted between Met1 and Ile2, SEQ ID NO:948 (protein)", "chain": "MAAIEVKPINAEDTYDLRHRVLRPNQPIEACMFDSDLMRSAFHLGGFYGGKLISVASFHQAEHTELQGQKQYQLRGVATLEGYREQKAGSSLVKHAEEILRKRGVDLLWCNARTSASGYYKKLGFSEQGEVFDTPPVGPHILMYKRIT", "modifications": "22-15B4 M1MAA"}, "B6": {"name": "YitI: most closely related sequence available in Genbank, yitI from Bacillus subtilis (protein, UniProt O06744 1-149, looked up)", "Uncharacterized …": "MLEVKTISVEDTYEIRHRILRPHQSIEQCKYKEDHAEGSFHLGVFYDGTLISIASFSPQSQPLLTEASAYRLRGMATLEGYRDQKAGSTLIKHAEHKLAESGVQAVWCNARHHVKGYYAKLGWKELGEPFDIPGIGNHIVMYKTLRTSR"}, "B7": {"name": "22-15B4 M1MA: 22-15B4 with one alanine inserted between Met1 and Ile2, SEQ ID NO:946 (protein)", "chain": "MAIEVKPINAEDTYDLRHRVLRPNQPIEACMFDSDLMRSAFHLGGFYGGKLISVASFHQAEHTELQGQKQYQLRGVATLEGYREQKAGSSLVKHAEEILRKRGVDLLWCNARTSASGYYKKLGFSEQGEVFDTPPVGPHILMYKRIT", "modifications": "22-15B4 M1MA"}}, "key": {"[1]": {"tested_on": "Nicotiana benthamiana leaves", "test": "Transient expression by Agrobacterium infiltration, GAT protein by SDS-PAGE and blot with antiGAT polyclonal antibody", "format": "in vivo", "settings": "infiltrated leaves, 3 days, as a percent of total protein", "protocol": "A binary vector with a dMMV-gat-UBQ3 cassette in the T-DNA was transformed into competent Agrobacterium tumefaciens strain C58 cells by electroporation (McCormac et al., Mol. Biotechnol. 9:155-159, 1998). After growth on LB+40 ug/ml kanamycin plates for 2 days at 28° C., colonies were inoculated into LB+40 ug/ml kanamycin liquid medium and shaken overnight at 28° C. The Agrobacterium cells were collected by centrifugation at 4000 g for 10 minutes and then resuspended in a volume of 10 mM MgSO4 equivalent to the initial culture volume. This bacterial suspension was forced or “infiltrated” into the intercellular spaces of Nicotiana benthamiana leaves using a 1 ml plastic syringe (with no needle). By infiltrating 200-300 μl of bacterial suspension into each spot (typically 3-4 cm^2 in infiltrated area), 4 or more spots could be arranged on a single leaf still attached to the plant. In some cases the gat-containing Agrobacterium strain was diluted 5:1 or 10:1 with a second Agrobacterium strain lacking gat prior to infiltration. This dilution step has the effect of reducing the overall expression of the gat gene in the plant cells, thereby preventing saturation and allowing easier visualization of expression differences between variants and constructs. After 3 days the leaf material was ground, extracted in aqueous buffer, and centrifuged. […]"}, "[2]": {"test": "GAT activity with substrate glyphosate (amino acid substrate study, DTNB)", "format": "biochemical", "settings": "Substrate Glyph, relative to 401", "protocol": "(§1) GAT activity of several GAT polypeptides of the present invention was evaluated with respect to a number of amino acid substrates. The GAT polypeptide, AcCoA and amino substrate were incubated in 25 mM Hepes, pH 6.8, 10% ethylene glycol in the wells of a 96-well polystyrene plate. After 30 minutes, the reactions were stopped by the addition of 30 μl of 10 mM 5,5′-dithiobis-2-nitrobenzoate (DTNB) in 500 mM Tris, pH 7.5. After 2 minutes, absorbance was read at 412 nm in a Spectramax Plus plate reader (Molecular Devices, Sunnyvale, Calif.)."}, "[3]": {"test": "GAT activity with substrate L-aspartate (DTNB)", "format": "biochemical", "settings": "for kcat/KM % of glyph: Substrate Aspartate", "protocol": "as §1"}, "[4]": {"test": "GAT activity with substrate L-serine (DTNB)", "format": "biochemical", "settings": "for kcat/KM % of glyph: Substrate Serine", "protocol": "as §1"}, "[5]": {"test": "Transfer of the propionyl group from propionyl CoA to glyphosate, DTNB detection", "format": "biochemical", "settings": "1 mM propionyl CoA, 5 mM glyphosate or no glyphosate, 30 minutes", "protocol": "The ability of GAT variants (B6 (SEQ ID NO:7), 0—6D10 (SEQ ID NO:448), 17-15H3 (SEQ ID NO:601), and 20-8H12c (SEQ ID NO:817)) to transfer the propionyl group from propionyl CoA to glyphosate was tested in reaction mixtures containing 5 mM glyphosate or no glyphosate. Propionyl CoA was present at 1 mM. After 30 minutes the reactions were terminated and the presence of free […] was determined by the addition of DTNB."}, "maize plants": {"tested_on": "maize plants", "test": "Effect of temperature variation on glyphosate tolerance of T1 maize expressing GAT transgenes", "format": "in vivo", "settings": "cool/cold, warm and hot conditions, 0×, 4×, 6×, 8× glyphosate at V2, scored 5 and 14 days", "protocol": "Maize plants expressing GAT variant transgenes 10—4F2 (SEQ ID NO:203), 17-15H3 (SEQ ID NO:549), and 18-28D9b (SEQ ID NO:814) were produced using the methods described in Example 13. The effect of temperature on glyphosate tolerance was evaluated in T1 plants. The T1 plants were grown in cool/cold (day 14° C., night 8° C.), warm (day 28° C., night 20° C.), and hot (day 37° C., night 20° C.) conditions. T1 plants were sprayed at V2 with four different glyphosate spray treatments (0×, 4×, 6×, and 8×). Plants were scored at 5 and 14 days after treatment for leaf discoloration and plant height comparisons as described in Example 13."}, "[6]": {"format": "physicochemical", "settings": "buffer, pH 7.2", "protocol": "The half lives of several GAT polypeptides were also measured at 37.5° C. according to the following procedure. GAT polypeptides 401 (SEQ ID NO: 6), 17-15H3 (SEQ ID NO: 601), 20-8H12 (SEQ ID NO: 739), 22-13B12 (SEQ ID NO: 781), 22-15B4 (SEQ ID NO: 946) and 22-18C5 (SEQ ID NO: 795) were incubated in a matrix of 25 mM Hepes, pH 7.2, 10 mM KCl and 10% methanol (“HKM”). At various timepoints, aliquots were withdrawn and assayed in triplicate at 22° C. using the continuous spectrophotometric assay described in Example 7 using saturating concentrations of glyphosate (20 mM for 401, 5 mM for the rest) and AcCoA (167 uM). The standard error at each time point averaged about 2.9%. GAT activity was plotted as a function of incubation time and the data was fitted to a curve for exponential decay (y=e^−x), where y is enzyme activity and x is time in hours, from which half life was calculated."}, "[7]": {"test": "Kinetics of GAT variants modified next to the initiating methionine", "format": "biochemical", "source_text": "A second way to increase plant expression of microbial genes is to increase the G+C content near the initiating methionine residue. Naturally-occurring coding sequences in plants tend to contain two or three G and/or C residues immediately downstream of the ATG initiation codon (Joshi et al. (1997) Plant Mol. Biol. 35:993-1001). Introducing into the gat coding sequence one or two CG-rich codons immediately downstream of the ATG intitiation codon may create a more plant-like coding sequence and thus may enhance its expression in plants."}, "[8]": {"test": "GAT activity of native YitI", "format": "biochemical"}}}
{"molecule": "B1", "values": [{"measurement": "level of GAT protein accumulated compared to the unmodified GAT25-8H7/4618 gene", "setting": "[1]", "value": "about two-fold greater"}]}
{"molecule": "B2", "values": [{"measurement": "level of GAT protein accumulated compared to the unmodified GAT25-8H7/4618 gene", "setting": "[1]", "value": "comparable"}]}
{"molecule": "B3", "values": [{"measurement": "kcat/KM Fold imp.", "setting": "[2]", "value": 7031, "unit": "fold"}, {"measurement": "increase in activity with aspartate compared to native GAT polypeptide", "setting": "[3]", "value": 40, "unit": "fold"}, {"measurement": "kcat/KM % of glyph", "setting": "[3]", "value": 0.520, "unit": "%"}, {"measurement": "activity with respect to serine and phosphoserine compared to native GAT polypeptide", "setting": "[4]", "value": "loss of activity"}, {"measurement": "kcat/KM % of glyph", "setting": "[4]", "value": 0.00855, "unit": "%"}]}
{"molecule": "B4", "values": [{"measurement": "glyphosate-dependent hydrolysis of propionyl CoA", "setting": "[5]", "value": "showed glyphosate-dependent hydrolysis of propionyl CoA"}, {"measurement": "effect of growth temperature on glyphosate tolerance", "setting": "maize plants", "value": "not adversely effected"}, {"measurement": "Half-life", "setting": "[6]", "value": 45, "unit": "h"}, {"measurement": "kcat/KM Fold imp.", "setting": "[2]", "value": 1086, "unit": "fold"}, {"measurement": "increase in activity with aspartate compared to native GAT polypeptide", "setting": "[3]", "value": 40, "unit": "fold"}, {"measurement": "kcat/KM % of glyph", "setting": "[3]", "value": 3.24, "unit": "%"}, {"measurement": "activity with respect to serine and phosphoserine compared to native GAT polypeptide", "setting": "[4]", "value": "loss of activity"}, {"measurement": "kcat/KM % of glyph", "setting": "[4]", "value": 0.0882, "unit": "%"}]}
{"molecule": "B5", "values": [{"measurement": "kinetics compared to the unmodified enzyme", "setting": "[7]", "value": "reduced kcat"}]}
{"molecule": "B6", "values": [{"measurement": "GAT activity", "setting": "[8]", "value": "detectable GAT activity"}]}
{"molecule": "B7", "values": [{"measurement": "kinetics compared to the unmodified enzyme", "setting": "[7]", "value": "essentially unaltered kinetics"}]}
